Measured values reported in publication PMC3446985.

Target: human GRP78 (human) (UniProt P11021)
Test: AUC; sedimentation velocity, GRP78 alone at 0.4, 0.6 and 1.2 mg/mL, 28,000 rpm, 20°C, 20 mM sodium phosphate pH 7.0, 100 mM NaCl, 55 mM arginine, c(S) analysis; monomer to dimer

human GRP78, P11021 19-654 (natural protein; other documents disagree on this pair), sequence (P11021 19-654): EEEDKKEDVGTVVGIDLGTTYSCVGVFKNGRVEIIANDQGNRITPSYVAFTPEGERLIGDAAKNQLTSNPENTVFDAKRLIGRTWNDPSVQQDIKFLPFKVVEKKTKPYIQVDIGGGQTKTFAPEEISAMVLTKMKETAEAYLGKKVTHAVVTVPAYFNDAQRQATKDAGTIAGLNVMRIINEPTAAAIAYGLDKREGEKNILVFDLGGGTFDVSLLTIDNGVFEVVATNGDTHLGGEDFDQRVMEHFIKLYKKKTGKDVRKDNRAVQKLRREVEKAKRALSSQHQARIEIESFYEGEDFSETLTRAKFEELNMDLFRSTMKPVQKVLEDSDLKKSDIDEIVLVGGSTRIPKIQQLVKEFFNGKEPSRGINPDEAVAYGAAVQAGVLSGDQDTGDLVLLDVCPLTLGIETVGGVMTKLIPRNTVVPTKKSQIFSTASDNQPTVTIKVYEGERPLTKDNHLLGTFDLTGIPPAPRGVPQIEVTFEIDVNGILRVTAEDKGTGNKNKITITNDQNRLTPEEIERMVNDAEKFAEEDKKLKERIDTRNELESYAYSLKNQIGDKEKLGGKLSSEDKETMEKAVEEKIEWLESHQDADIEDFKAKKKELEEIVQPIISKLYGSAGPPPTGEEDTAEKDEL

stoichiometry N: 2
Substance: human GRP78, P11021 19-654 (natural protein; other documents disagree on this pair)
